This is an account of results in patent US5851983A, “Elastase inhibitory polypeptide and process for production thereof by recombinant gene technology” (Teijin Limited, priority 1987, dated 1998).

One data set has as its target T1, Human plasma plasmin (Homo sapiens, UniProt P00747).
T1 construct: (6) Human plasma plasmin (Kabi, Daiichi Kagaku Yakuhin); purchased Kabi (via Daiichi Kagaku Yakuhin); host or cells: human plasma
Kind of data set: Assay for plasmin inhibitory activity (Example 36). The class given is biochemical. The conditions noted are these: final concentration up to ×10^-5 M; enzyme 1.0 × 10^-7 M. The method, then:
G. Human plasma plasmin (sigma)
Plasmin: 50 mM Tris-HCl, 100 mM NaCl (pH 7.4) […]
Substrate solution: for the enzymes F, G, H and I, the following substrate f, g, h or i, respectively, was dissolved to a final concentration shown in Table 24.
g. H.D-Val-Leu-Lys-pNA (Kabi Vitrum)
To wells of an ELISA 96-well microtiter plate, were added a solution of (Arg^58 -Ala^107) SLPI obtained in Example 34 and then the enzyme solution, and the mixture was incubated at 37° C. for 10 minutes. Next, the substrate solution was added to develop the color, whose absorption was then measured at 405 nm. As a control, SLPI was used.

Data set [1] addresses T2, polymorphonuclear leucocyte elastase from human sputum (Homo sapiens, UniProt P08246).
T2 construct: Polymorphonuclear leukocyte elastase from human sputum (EPC Co; Funakoshi Yakuhin); purchased EPC Co. (via Funakoshi Yakuhin); host or cells: human sputum
T2 sequence (P08246 30-267): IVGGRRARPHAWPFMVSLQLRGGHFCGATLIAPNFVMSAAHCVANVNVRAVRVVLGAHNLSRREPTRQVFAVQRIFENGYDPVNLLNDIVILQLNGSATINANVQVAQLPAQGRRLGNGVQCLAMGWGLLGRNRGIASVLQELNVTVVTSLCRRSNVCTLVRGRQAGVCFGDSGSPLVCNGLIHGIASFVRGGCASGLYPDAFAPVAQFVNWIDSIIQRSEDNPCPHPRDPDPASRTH
Kind of data set: Simultaneous treatment with healthy human saliva and elastase (Examples 28, 29). The class given is in vitro ADME. The following applies: 37° C. On the procedure: (1) Healthy human saliva was ultra-filtered through a 0.22 μm filter (Millex GS, Millipore), and to the filtered saliva were added SLPI and polymorphonuclear leucocyte elastase from human sputum (EPC, Funakoshi Yakuhin) to a final concentration of 50 μM respectively. The mixture was incubated at 37° C., samples were taken as time elapsed, and analyzed by SDS-PAGE as described in Example 27.
(2) Next, the band J was transferred to a membrane as described in Example 27, and N-terminal amino acid sequence was analyzed.
(1) According to the same procedure as described in Example 28, to healthy human saliva were dissolved SLPI and polymorphonuclear leucocyte elastase from human sputum to final concentrations of 50 μM and 100 μM respectively, and the mixture was incubated at 37° C. Samples were taken as time elapsed, and analyzed by SDS-PAGE.
(2) Next, N-terminal amino acid sequence of the band M was analyzed as described in Example 27.

In a further data set the target is T3, Bovine spleen trypsin (Bos taurus, UniProt P00760).
T3 construct: purchased Sigma
T3 sequence (P00760 24-246): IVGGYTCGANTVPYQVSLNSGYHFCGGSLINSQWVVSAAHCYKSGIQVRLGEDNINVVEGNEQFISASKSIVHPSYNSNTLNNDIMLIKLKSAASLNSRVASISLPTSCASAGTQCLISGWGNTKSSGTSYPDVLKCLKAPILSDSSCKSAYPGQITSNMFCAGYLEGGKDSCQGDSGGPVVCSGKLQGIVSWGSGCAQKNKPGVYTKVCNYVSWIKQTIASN
Kind of data set: Assay for trypsin inhibitor activity (Example 24). The following applies: enzyme 2 × 10^-7 M, substrate 1.0 × 10^-3 M. The class given is biochemical. The method, then:
The following assay method was used.
Buffer: 0.1M (2-hydroxyethyl)piperazine-N'-2-ethansulfonic acid (HEPES), 0.5M NaCl, pH 7.5.
Enzyme concentration: the following enzyme was dissolved in the above-mentioned buffer to a concentration 9 times that shown in Table 12.
B. Bovine spleen trypsin (Sigma)
Substrate solution: for the enzymes A, B, C, D and E, the following substrate a, b, c, d or e, respectively, was dissolved in a solution of DMSO+the above-mentioned buffer (1:9) (note, final concentration of DMSO was 10% in the buffer) to a concentration of 9 times that shown in Table 12. […]
To wells of an ELISA 96-well microtiter plate, were added 120 μl of the buffer and the 20 μl of a sample solution of (Arg^59 -Ala^107) SLPI obtained in Example 23, followed by 20 μl of the enzyme solution. The mixture was reacted at 37° C. for 10 minutes. Next, 20 μl of the substrate was added, and developed at 37° C. The developed color was measured by absorption at 405 nm.
As a control the same procedure was carried out using SLPI.

A short description of data set [2]: Partial hydrolysis with healthy human saliva (Examples 15, 16). It is filed as in vitro ADME. The following applies: 37° C. On the procedure:
Healthy human saliva was filtered through a 0.22 μm filter (Milex GS, Milipore), and in the filtrate was dissolved 1 mg/ml of the SLPI prepared in Reference Example 1. The mixture was then incubated at 37° C. for 30 days. As a control, the SLPI was dissolved in physiological saline (Physisalz; Fuso Yakuhin Kogyo), and the mixture was incubated at 37° C. for 30 days.
With an elapse of time, samples were taken and to each sample were added a Tris-HCl buffer (pH 6.8), SDS, 2-mercaptoethamel and glycerol, to final concentration of 60 mM, 2% by weight, 4% by weight and 10% by weight, respectively, and the mixture was subjected to an SDS-PAGE (U.K. Laemmli, Nature, 227, 680, 1970). The gel after electrophoresis was stained with Coomussie Brilliant Blue.
Next, polypeptides in the polyacrylamide gel thus obtained were electrically transferred to a membrane (Immobilon; Milipore) using a Milli Blot-SDE apparatus. After the transfer, the membrane was stained with 0.1% by weight of Coomassie Blue in 40% by weight methanol/1% by weight acetic acid, and washed with water. Then, after air drying, the bands b, c, d and e were excised, and for each band, the PTH-amino acids were cleaved from the N-terminus with an Applied Biosystems Protein Sequences (Applied Biosystems; 470A) and analysed with a PTH analyser (Applied Biosystems, 120A) to determine an amino acid sequence for 10 amino acids from the N-terminus.
According to the same procedure as described in Example 15, (Asn^55 -Ala^107) SLPI prepared in Example 11 was treated with healthy human saliva at 37° C., and a result is shown in FIG. 13. […] After 12 hours, a new band g (MW about 5,500) appeared.
Next, according to the same procedure as described in Example 15, the band g was electrically transferred to a membrane and N-terminal amino acid sequence was analyzed. […] The 6th amino acid could not be determined. The N-terminal amino acid sequence of the band g corresponds to an amino acid sequence starting from Arg^59 of SLPI.

T1 sequence (P00747 581-810 limits assumed): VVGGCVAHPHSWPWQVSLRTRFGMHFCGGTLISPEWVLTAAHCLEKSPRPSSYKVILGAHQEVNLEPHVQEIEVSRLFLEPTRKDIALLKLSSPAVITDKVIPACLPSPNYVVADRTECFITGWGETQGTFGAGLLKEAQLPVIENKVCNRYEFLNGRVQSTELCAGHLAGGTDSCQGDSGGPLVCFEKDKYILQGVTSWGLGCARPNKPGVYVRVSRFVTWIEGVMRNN
T1 sequence (P00747 97-580 partner limits assumed): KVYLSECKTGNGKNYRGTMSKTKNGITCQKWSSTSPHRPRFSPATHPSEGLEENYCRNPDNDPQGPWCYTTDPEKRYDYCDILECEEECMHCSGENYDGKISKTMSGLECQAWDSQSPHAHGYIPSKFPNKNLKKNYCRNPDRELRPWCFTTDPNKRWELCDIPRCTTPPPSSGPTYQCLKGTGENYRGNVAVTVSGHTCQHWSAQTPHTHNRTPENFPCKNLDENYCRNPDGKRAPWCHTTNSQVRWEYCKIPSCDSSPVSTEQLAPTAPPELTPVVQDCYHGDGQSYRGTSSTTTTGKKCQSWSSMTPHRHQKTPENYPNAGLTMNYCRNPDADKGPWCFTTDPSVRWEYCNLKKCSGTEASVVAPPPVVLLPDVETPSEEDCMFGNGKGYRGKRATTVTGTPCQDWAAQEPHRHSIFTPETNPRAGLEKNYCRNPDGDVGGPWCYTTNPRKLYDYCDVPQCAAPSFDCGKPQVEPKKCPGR

B1: SLPI: Human secretory leukoprotease inhibitor; recombinant SLPI of Reference Example 1 used as control (protein)
chain: SGKSFKAGVCPPKKSAQCLRYKKPECQSDWQCPGKKRCCPDTCGIKCLDPVDTPNPTRRKPGKCPVTYGQCLMLNPPNFCEMDGQCKRDLKCCMGMCGKSCVSPVKA
By IC50 is commonly meant the concentration that inhibits the measured activity by half. On to B1, for which the “inhibitory activity to plasmin” value in the data set with Human plasma plasmin was “did not exhibit inhibitory activity”. In addition, the “SDS-PAGE bands on simultaneous treatment with healthy human saliva and elastase” value in data set [1] (50 μM polypeptide, elastase 50 μM (Example 28) or 100 μM (Example 29)) is “after 96 hours, a new band J with a molecular weight of about 5,500 appeared”. The “cleavage site on simultaneous treatment with healthy human saliva and elastase” value in data set [1] (N-terminal sequencing of SDS-PAGE band) is reported as “cleaved at the site between Thr^57 -Arg^58”. This molecule also gave an IC50 with Bovine spleen trypsin of 330 nM. Further, in data set [2] (1 mg/ml, up to 30 days), the “SDS-PAGE band of SLPI (MW about 13,000) during incubation in healthy human saliva” value is reported as “decreased as time elapid”. Also, the “SDS-PAGE band after incubation in physiological saline (control)” value in data set [2] (30 days) is “maintained a band having an MW of about 13,000 during the incubation”. For the same molecule, the “cleavage sites in healthy human saliva” value in data set [2] (SDS-PAGE bands, N-terminal sequencing) is “between Arg^20 -Try^21, Arg^58 -Arg^59, Leu^72 -Met^73, and Met^73 -Leu^74”.
